Reference: patent publication US20260274955A1 (JANUX THERAPEUTICS, published 2026)

How the values were obtained:
[1] = molecular target: Anti-CD28 Fab (SEQ ID NOs: 202, 203); assay: phage binding ELISA on captured Fab;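 note: clonal phage supernatants added briefly to wells pre-incubated with CD28 antigen or with blocking buffer only, then washed, bound phage read by ELISA using HRP-coupled anti-M13 antibody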
Method: (§1) Clonal phage were harvested as crude supernatants and screened via standard ELISAs. […] Prior to the addition of clonal phage, wells were incubated with blocking buffer and CD28 antigen or blocking buffer alone. Without washing or aspirating, clonal phage supernatants were then added to the wells and incubated for a short time. Wells were then washed followed by detection of bound phage using a horse radish conjugated anti-M13 antibody.

[2] = molecular target: Anti-CD28 Fab (SEQ ID NOs: 202, 203); assay: phage binding ELISA on captured Fab; competitor CD28 antigen;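 for Anti-CD28 Fab signal in the presence of CD28: wells pretreated with CD28 antigen in blocking buffer or buffer only, then clonal phage supernatants added briefly without washing, bound phage detected via horseradish-conjugated anti-M13 antibody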
Method: as §1

Chain of Anti-CD28 Fab (SEQ ID NOs: 202, 203) (VH, as listed by the source, chain 1 of 2): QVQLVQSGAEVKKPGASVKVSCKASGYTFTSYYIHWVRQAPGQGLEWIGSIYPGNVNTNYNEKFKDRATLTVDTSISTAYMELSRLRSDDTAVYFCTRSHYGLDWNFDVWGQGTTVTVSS
Chain of Anti-CD28 Fab (SEQ ID NOs: 202, 203) (VL, as listed by the source, chain 2 of 2): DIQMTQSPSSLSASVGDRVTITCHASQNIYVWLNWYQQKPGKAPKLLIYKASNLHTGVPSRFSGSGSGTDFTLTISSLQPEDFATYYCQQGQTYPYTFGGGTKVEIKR

B1: Phage-35 (peptide)
peptide: YCEGHLPEYLAKCL
- Anti-CD28 Fab signal [1]: 2.34
- Anti-CD28 Fab signal in the presence of CD28 [2]: 0.1

B2: Phage-44 (peptide)
peptide: YCEGHAPEYIGKCL
- Anti-CD28 Fab signal [1]: 2.1
- Anti-CD28 Fab signal in the presence of CD28 [2]: 0.07

B3: Phage-53 (peptide)
peptide: YCAGHLPEYMDKCL
- Anti-CD28 Fab signal [1]: 2.42
- Anti-CD28 Fab signal in the presence of CD28 [2]: 0.12

B4: Phage-60 (peptide)
peptide: YCEGHLPQYMQKCL
- Anti-CD28 Fab signal [1]: 2.39
- Anti-CD28 Fab signal in the presence of CD28 [2]: 0.12

B5: Phage-45 (peptide)
peptide: YCDGHSPIYMWKCL
- Anti-CD28 Fab signal [1]: 2.47
- Anti-CD28 Fab signal in the presence of CD28 [2]: 0.09

B6: Phage-61 (peptide)
peptide: YCDGHAPEYMMKCL
- Anti-CD28 Fab signal [1]: 2.39
- Anti-CD28 Fab signal in the presence of CD28 [2]: 0.09

B7: Phage-57 (peptide)
peptide: YCEGHLPEYMAKCL
- Anti-CD28 Fab signal [1]: 2.41
- Anti-CD28 Fab signal in the presence of CD28 [2]: 0.14

B8: Phage-54 (peptide)
peptide: YCDGHSAEHMAKCL
- Anti-CD28 Fab signal [1]: 2.41
- Anti-CD28 Fab signal in the presence of CD28 [2]: 0.08

B9: Phage-51 (peptide)
peptide: YCEGHLPQYMWKCL
- Anti-CD28 Fab signal [1]: 2.44
- Anti-CD28 Fab signal in the presence of CD28 [2]: 0.17

B10: Phage-55 (peptide)
peptide: YCAGHLPQYMAKCL
- Anti-CD28 Fab signal [1]: 2.41
- Anti-CD28 Fab signal in the presence of CD28 [2]: 0.17

B11: Phage-47 (peptide)
peptide: YCDGHLPQYMEKCL
- Anti-CD28 Fab signal [1]: 2.47
- Anti-CD28 Fab signal in the presence of CD28 [2]: 0.11

B12: Phage-49 (peptide)
peptide: YCDGHSPEYMWKCL
- Anti-CD28 Fab signal [1]: 2.44
- Anti-CD28 Fab signal in the presence of CD28 [2]: 0.09

B13: Phage-62 (peptide)
peptide: YCEGHLPEYMWKCL
- Anti-CD28 Fab signal [1]: 2.39
- Anti-CD28 Fab signal in the presence of CD28 [2]: 0.08

B14: Phage-42 (peptide)
peptide: YCEGHLPEYIQKCL
- Anti-CD28 Fab signal [1]: 1.9
- Anti-CD28 Fab signal in the presence of CD28 [2]: 0.08

B15: Phage-52 (peptide)
peptide: YCDGHLPEYMNKCL
- Anti-CD28 Fab signal [1]: 2.43
- Anti-CD28 Fab signal in the presence of CD28 [2]: 0.13

B16: Phage-43 (peptide)
peptide: YCEGHLPEYIWKCL
- Anti-CD28 Fab signal [1]: 2.32
- Anti-CD28 Fab signal in the presence of CD28 [2]: 0.09

B17: Phage-46 (peptide)
peptide: YCEGHAPEYMAKCL
- Anti-CD28 Fab signal [1]: 2.47
- Anti-CD28 Fab signal in the presence of CD28 [2]: 0.08

B18: Phage-59 (peptide)
peptide: YCDGHLPQYMAQCL
- Anti-CD28 Fab signal [1]: 2.4
- Anti-CD28 Fab signal in the presence of CD28 [2]: 0.2

B19: Phage-40 (peptide)
peptide: YCEGHLPEYRNKCL
- Anti-CD28 Fab signal [1]: 2.38
- Anti-CD28 Fab signal in the presence of CD28 [2]: 0.17

B20: Phage-50 (peptide)
peptide: YCDGHLPEYMEKCL
- Anti-CD28 Fab signal [1]: 2.44
- Anti-CD28 Fab signal in the presence of CD28 [2]: 0.1

B21: Phage-48 (peptide)
peptide: YCAGHAPEYMEKCL
- Anti-CD28 Fab signal [1]: 2.45
- Anti-CD28 Fab signal in the presence of CD28 [2]: 0.09

B22: Phage-58 (peptide)
peptide: YCEGHLPEYMFKCL
- Anti-CD28 Fab signal [1]: 2.4
- Anti-CD28 Fab signal in the presence of CD28 [2]: 0.12
